Measured values as given in PMC3081289 (PLoS ONE, 2011).

Target: T1, human Epidermal Growth Factor Receptor 2 (HER2), extracellular domain (Homo sapiens, UniProt P04626)
T1 construct: HER2 (human Epidermal Growth Factor Receptor 2), extracellular domain (ECD); also called HER2-ECD; HER2 ECD; source: expressed and purified as described [54]
Assay: SPR; BIAcore 3000; VEGF_(8–109) or HER2 ECD immobilised on CM5 chips; serial dilutions of Fab in PBS with 0.05% Tween20 injected at 30 µl/min; 30°C; 1:1 Langmuir fit; KD from the ratio of kon and koff
Settings: both partners purified

B1: bH1 Fab (HER2/VEGF dual specific variant of Herceptin) (Fab, V domains shown)
VH: not shown
VL: DIQMTQSPSSLSASVGDRVTITCRASQDIPRSISGYVAWYQQKPGKAPKLLIYWGSYLYSGVPSRFSGSGSGTDFTLTISSLQPEDFATYYCQQHYTTPPTFGQGTKVEIK
notes: Isolated from a phage library that randomised the light chain CDRs of Herceptin [22]
- Kd: 20 nM
